Drawing on paper PMC6468809, “Structural Analysis of the 42 kDa Parvulin of Trypanosoma brucei” (Biomolecules, 2019), this text covers Kd for 1 molecule.

For the experiment, the target named is TbPar42 N-terminal extended FHA domain (1-177) (T. brucei). Kind of experiment: NMR titration; 440 uM 15N-labelled NterFHA or PPIase in 50 mM potassium phosphate, pH 6.26, 90%/10% H2O/D2O; peptide added stepwise to 13 mM; 1H-15N-HSQC or SOFAST spectra, 700 MHz, 27 °C.

*1 amine or outer side, *2 acyl side, *3 side chain or, on linkers, in order; H or OH if unused. [ ]: non-standard residue; d: D form. pT = C[C@@H](OP(=O)(O)O)[C@H](N)C(=O)O; Suc = O=C(CCC(=O)[*:2])[*:1]

B1: Suc-Ala-pThr-Pro-Ala-NH2 (peptide)
peptide: Suc-A[pT]PA-NH2
SMILES: C[C@H](NC(=O)[C@@H]1CCCN1C(=O)[C@@H](NC(=O)[C@H](C)NC(=O)CCC(=O)O)[C@@H](C)OP(=O)(O)O)C(N)=O
By Kd is commonly meant the constant that tells how readily two partners part at equilibrium. Molecule B1 gave a Kd of 4 mM.
